{"source": "patent US7528244", "molecular_target": "T1, caspase-3, P42574", "T1 chain": "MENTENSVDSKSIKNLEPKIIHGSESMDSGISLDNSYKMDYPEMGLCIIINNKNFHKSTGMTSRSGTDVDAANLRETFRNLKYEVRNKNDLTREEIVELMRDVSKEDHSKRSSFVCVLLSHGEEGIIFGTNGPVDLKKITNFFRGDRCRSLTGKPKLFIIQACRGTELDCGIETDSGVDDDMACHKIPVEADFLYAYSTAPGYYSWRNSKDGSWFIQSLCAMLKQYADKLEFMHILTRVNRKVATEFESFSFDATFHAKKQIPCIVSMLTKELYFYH"}
{"protein": "caspase-8 (217-479) (protein) SESQTLDKVYQMKSKPRGYCLIINNHNFAKAREKVPKLHSIRDRNGTHLDAGALTTTFEELHFEIKPHDDCTVEQIYEILKIYQLMDHSNMDCFICCILSHGDKGIIYGTDGQEAPIYELTSQFTGLKCPSLAGKPKVFFIQACQGDNYQKGIPVETDSEEQPYLEMDLSSPQTRYIPDEADFLLGMATVNNCVSYRNPAEGTWYIQSLCQSLRERCPRGDDILTILTEVNYEVSNKDDKKNMGKQMPQPTFTLRKKLVFPSD", "values": [{"measurement": "processing of 35S-labeled caspase-3 precursor by in vitro translated protein", "value": "In vitro translated Casper (192-480) could not process caspase-3, whereas in vitro translated caspase-8 (217-479) could"}]}
